For data set [1], the system named is human liver lysosome. Briefly: Metabolism test using human liver lysosomal fraction. Type of data set: in vitro ADME. The conditions noted are these: 37° C., 24 hours, released drug, LC-MS/MS. The procedure:
To a reaction composition solution (X10 Catabolic Buffer (manufactured by SEKISUI-Xenotech, LLC., K5200))(60 μL) in which human liver lysosome (manufactured by SEKISUI-Xenotech, LLC., Cat No. H610.L 2.5 mg/mL)(corresponding to 0.125 mg of protein) was suspended and distilled water (manufactured by FUJIFILM Wako Pure Chemical Corporation, for HPLC)(10 μL) was added 1.2 μM test compound (antibody-drug conjugate produced in ADC Production examples)(25 μL) dissolved in PBS to prepare a reaction solution. After the reaction solution was incubated at 37° C. for 24 hours, “an antitumor drug molecule or an analog thereof, or a derivative thereof” released from the antibody-drug conjugate into the reaction solution was quantified by LC-MS/MS (high performance liquid chromatography/mass spectrometer system) under the following conditions. LC-MS/MS analysis conditions
(§1) LC: LC20 or LC30 HPLC system manufactured by Shimadzu Corporation
(§2) Column: Phenomenex Kinetex C18 (50×2.1 mm, 2.6 μm)
(§3) Column temperature: 40° C.
(§4) Mobile phase A: 0.1% aqueous solution of formic acid, Mobile phase B: 0.1% solution of formic acid in a mixture of 50% acetonitrile/methanol
(§5) Mode: Positive or Negative
(§6) The release rate (%) of drug was calculated by the following equation.

Data set [2] addresses T1, human liver Cathepsin B (Homo sapiens, UniProt P07858).
T1 construct: human liver Cathepsin B (manufactured by Sigma-Aldrich Co. LLC, Cat No. C8571 25 μg/vial); purchased Sigma-Aldrich Co. LLC C8571; host or cells: human liver
Briefly: Metabolism test using human liver Cathepsin B. The data set is classed as in vitro ADME. To be noted: 37° C., 24 hours, released drug, LC-MS/MS. As to the method:
To human liver Cathepsin B (manufactured by Sigma-Aldrich Co. LLC, Cat No. C8571 25 μg/vial)(corresponding to 400 Unit/mL)(5 μL), X10 Catabolic Buffer (manufactured by SEKISUI-Xenotech, LLC., K5200)(10 μL), 2.5 mM Bovine Serum Albumin (manufactured by FUJIFILM Wako Pure Chemical Corporation, Cat No. 012-15093)(5 μL), and distilled water (manufactured by FUJIFILM Wako Pure Chemical Corporation, for HPLC)(55 μL) was added 1.2 μM test compound (antibody-drug conjugate prepared in ADC Production examples)(25 μL) dissolved in PBS to prepare a reaction solution. After the reaction solution was incubated at 37° C. for 24 hours, “an antitumor drug molecule or an analog thereof, or a derivative thereof” released from the antibody-drug conjugate into the reaction solution was quantified by LC-MS/MS (high performance liquid chromatography/mass spectrometer system) under the following conditions. LC-MS/MS analysis conditions
as §1, §2, §3, §4, §5, §6

Data set [3] concerns the target T2, porcine tubulin (Sus scrofa, UniProt P02550+P02554).
T2 construct: purchased Cytoskeleton, Inc. BK011P
Nature of the data set: Tubulin polymerization inhibition test. The data set is classed as biochemical. The procedure: For measuring the tubulin polymerization inhibitory action, Tubulin Polymerization Assay Kit (manufactured by Cytoskeleton, Inc., BK011P) was used. A PIPES buffer containing porcine tubulin, GTP, MgCl2, EGTA, Glycerol, and a fluorescent reporter was prepared under ice-cooling as a reaction solution. The reaction solution was ice-cooled until it was used. A test compound solution was prepared by an aqueous solution containing 1.5% DMSO, and added to a 96 well plate (manufactured by Corning Inc., 3686) at 5 μL/well. The reaction solution was added thereto at 50 μL/well, the plate was placed in a microplate reader (FlexStation 3, manufactured by Molecular Device, LLC) in which the internal temperature was set to 37° C. in advance, and the fluorescence intensity measurement (excitation wavelength: 360 nm, detection wavelength: 420 nm) of each well was started. The fluorescence intensity was measured once every minute, and the measurement was continued for 60 minutes.
The tubulin polymerization inhibition rate (%) was calculated by the following equation.
[formula] • a: average amount of fluorescence intensity increase in vehicle-treated well (n=2) • b: average amount of fluorescence intensity increase in test compound-treated well (n=2)
Amount of fluorescence intensity increase: (average fluorescence intensity after 51 to 60 minutes from measurement start)−(average fluorescence intensity after 1 to 6 minutes from measurement start)

Where [4] appears, read: porcine tubulin, 37° C., fluorescence over 60 minutes, read-out: IC50 value (tubulin polymerization inhibition).

Like-named read-outs stand apart in the source and are kept apart here. Numbered stars: 1 amine (or outer) side, 2 acyl side, 3 side chain; on linkers, the order of the positions; unused ones are H or OH. Square brackets hold non-standard residues; d marks the D form. Peptide text beside a SMILES is read from it. * marks the point of attachment. Exatecan = CC[C@@]1(O)C(=O)OCc2c1cc1n(c2=O)Cc2c-1nc1cc(F)c(C)c3c1c2[C@@H](N*)CC3; βAla(2S-maleimido) = O=C1C=CC(=O)N1[C@@H](CN[*:1])C(=O)[*:2]; Dolaproine = CO[C@@H]([C@@H]1CCCN1)[C@@H](C)C(=O)O; Propanoyl(3-maleimido) = O=C1C=CC(=O)N1CCC(=O)*; X5 = C[C@@H](N[*:1])[C@@H](OC(=O)[*:2])c1ccccc1; NH(CH2CH2O)8Me = COCCOCCOCCOCCOCCOCCOCCOCCN*; Dil = CC[C@H](C)[C@H](NC)[C@@H](CC(=O)O)OC; PABC = O=C(OCc1ccc(N[*:1])cc1)[*:2]; X1 = C[C@@H](N*)[C@@H](O)c1ccccc1; hSer(lactone) = O=C1OCC[C@@H]1N*; Cit = NC(=O)NCCC[C@H](N)C(=O)O; PEG4 = NCCOCCOCCOCCOCCC(=O)O; NMeV = CN[C@H](C(=O)O)C(C)C; X2 = O=C1CC[C@@H](C(=O)*)O1; Sar = CNCC(=O)O

T2 sequence (P02550 whole entry): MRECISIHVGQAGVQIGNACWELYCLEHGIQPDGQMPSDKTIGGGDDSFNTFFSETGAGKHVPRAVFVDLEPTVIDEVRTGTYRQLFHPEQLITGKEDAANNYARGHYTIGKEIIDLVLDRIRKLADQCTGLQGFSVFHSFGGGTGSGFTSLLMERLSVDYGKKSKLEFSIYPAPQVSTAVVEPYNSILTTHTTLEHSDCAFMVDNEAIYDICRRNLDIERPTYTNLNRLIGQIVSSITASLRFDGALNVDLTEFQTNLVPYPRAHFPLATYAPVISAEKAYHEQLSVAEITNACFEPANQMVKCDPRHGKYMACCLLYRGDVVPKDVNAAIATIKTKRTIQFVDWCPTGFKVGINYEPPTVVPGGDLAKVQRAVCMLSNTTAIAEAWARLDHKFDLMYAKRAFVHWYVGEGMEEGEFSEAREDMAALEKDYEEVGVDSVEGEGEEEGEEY
T2 sequence (P02554 whole entry): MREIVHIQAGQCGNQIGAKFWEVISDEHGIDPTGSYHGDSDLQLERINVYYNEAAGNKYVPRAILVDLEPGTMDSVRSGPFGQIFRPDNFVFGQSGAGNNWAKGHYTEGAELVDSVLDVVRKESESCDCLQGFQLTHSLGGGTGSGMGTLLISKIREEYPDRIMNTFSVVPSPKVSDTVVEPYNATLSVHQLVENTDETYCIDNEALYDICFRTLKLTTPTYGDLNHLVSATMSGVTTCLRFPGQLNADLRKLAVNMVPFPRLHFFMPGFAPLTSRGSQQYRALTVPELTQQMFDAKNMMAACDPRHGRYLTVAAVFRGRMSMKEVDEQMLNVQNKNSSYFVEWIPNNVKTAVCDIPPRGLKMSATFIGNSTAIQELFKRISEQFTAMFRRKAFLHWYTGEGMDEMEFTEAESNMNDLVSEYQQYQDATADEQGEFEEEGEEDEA

Take `CC[C@@]1(O)C(=O)OCc2c1cc1n(c2=O)Cc2c-1nc1cc(F)c(C)c3c1c2[C@@H](NC(=O)CN(C)C(=O)OCc1ccc(NC(=O)[C@H](CCCNC(N)=O)NC(=O)[C@@H](NC(=O)[C@H](CC(=O)N[C@H]2CCOC2=O)NC(=O)CCOCCOCCOCCOCCNC(=O)CCN2C(=O)C=CC2=O)C(C)C)cc1)CC3` [Example 4] ({Propanoyl(3-maleimido)-PEG4}-D(hSer(lactone))V[Cit][PABC][Sar]-Exatecan): the “Release rate (%) of drug from ADC” value in data set [1] is reported as 76%; in data set [2], 97%.

Turning to `CC[C@H](C)[C@@H]([C@@H](CC(=O)N1CCC[C@H]1[C@H](OC)[C@@H](C)C(=O)N[C@H](C)[C@@H](O)c1ccccc1)OC)N(C)C(=O)[C@@H](NC(=O)[C@H](C(C)C)N(C)C(=O)OCc1ccc(NC(=O)[C@H](CCCNC(N)=O)NC(=O)[C@@H](NC(=O)[C@H](CC(=O)N[C@H]2CCOC2=O)NC(=O)CCOCCOCCOCCOCCNC(=O)[C@H](CNC(=O)[C@@H]2CCC(=O)O2)N2C(=O)C=CC2=O)C(C)C)cc1)C(C)C` [Example 7] (X2-[βAla(2S-maleimido)][PEG4]D(hSer(lactone))V[Cit][PABC][NMeV]V[Dil][Dolaproine]-X1), the “Release rate (%) of drug from ADC” value in data set [1] is 86%; in data set [2], 65%.

In the case of `CCN(CC(=O)N[C@H]1CCc2c(C)c(F)cc3nc4c(c1c23)Cn1c-4cc2c(c1=O)COC(=O)[C@]2(O)CC)C(=O)OCc1ccc(NC(=O)[C@H](CCCNC(N)=O)NC(=O)[C@@H](NC(=O)[C@H](CC(=O)N[C@H]2CCOC2=O)NC(=O)CCOCCOCCOCCOCCNC(=O)[C@H](CNC(=O)CCP(=O)(O)O)N2C(=O)C=CC2=O)C(C)C)cc1` [Example 9], the “Release rate (%) of drug from ADC” value is 98% in data set [1] and 40% in data set [2].

As for `CC[C@@]1(OC(=O)OCc2ccc(NC(=O)[C@H](CCCNC(N)=O)NC(=O)[C@@H](NC(=O)[C@H](CC(=O)N[C@H]3CCOC3=O)NC(=O)CCOCCOCCOCCOCCNC(=O)[C@H](CNC(=O)CCP(=O)(O)O)N3C(=O)C=CC3=O)C(C)C)cc2)C(=O)OCc2c1cc1n(c2=O)Cc2c-1nc1cc(F)c(C)c3c1c2[C@@H](NC(C)=O)CC3` [Example 10], the “Release rate (%) of drug from ADC” value in data set [1] is given as 61%; in data set [2], 28%.

`CC[C@@]1(OC(=O)OCc2ccc(NC(=O)[C@H](CCCNC(N)=O)NC(=O)[C@@H](NC(=O)[C@H](CC(=O)N[C@H]3CCOC3=O)NC(=O)CCOCCOCCOCCOCCNC(=O)[C@H](CNC(=O)CCP(=O)(O)O)N3C(=O)C=CC3=O)C(C)C)cc2)C(=O)OCc2c1cc1n(c2=O)Cc2c-1nc1cc(F)c(C)c3c1c2[C@@H](NC(=O)CO)CC3` [Example 11]: the “Release rate (%) of drug from ADC” value in data set [1] is recorded as 64%; in data set [2], 30%.

For `CC[C@H](C)[C@@H]([C@@H](CC(=O)N1CCC[C@H]1[C@H](OC)[C@@H](C)C(=O)N[C@H](C)[C@@H](O)c1ccccc1)OC)N(C)C(=O)[C@@H](NC(=O)[C@H](C(C)C)N(C)Cc1cc(N)ccc1F)C(C)C` [Example U-008], the half-maximal inhibitory concentration (IC50) in data set [3] (setting [4]) is not above 3 µM.

With `CC[C@H](C)[C@@H]([C@@H](CC(=O)N1CCC[C@H]1[C@H](OC)[C@@H](C)C(=O)N[C@H](C)[C@@H](O)c1ccccc1)OC)N(C)C(=O)[C@@H](NC(=O)[C@H](C(C)C)N(C)C(=O)CNC(=O)CN)C(C)C` [Example U-009] (H-GG[NMeV]V[Dil][Dolaproine]-X1), the IC50 in data set [3] (setting [4]) is not above 3 µM.

`CC[C@H](C)[C@@H]([C@@H](CC(=O)N1CCC[C@H]1[C@H](OC)[C@@H](C)C(=O)N[C@H](C)[C@@H](O)c1ccccc1)OC)N(C)C(=O)[C@@H](NC(=O)[C@H](C(C)C)N(C)C)C(C)C` [Example U-010] came in with a half-maximal inhibitory concentration (IC50) in data set [3] not above 3 µM.

As for `CC[C@H](C)[C@@H]([C@@H](CC(=O)N1CCC[C@H]1[C@H](OC)[C@@H](C)C(=O)N[C@H](C)[C@@H](OC(=O)NCCOCCOCCOCCOCCOCCOCCOCCOC)c1ccccc1)OC)N(C)C(=O)[C@@H](NC(=O)[C@@H](NC)C(C)C)C(C)C` [Example U-011] (H-[NMeV]V[Dil][Dolaproine][X5]-{NH(CH2CH2O)8Me}), in data set [3] (setting [4]), the IC50 was not above 3 µM.

Broadly, the IC50 is the point on the concentration scale where inhibition reaches its midpoint.

For the origin of these results see US20250170267A1, “ANTIBODY-DRUG CONJUGATE PRECURSOR AND INTERMEDIATE FOR SYNTHESIS THEREOF” (UBE Corporation, priority 2022, published 2025).
